Source: paper PMC9103184, “Kunitz-Type Peptides from Sea Anemones Protect Neuronal Cells against Parkinson’s Disease Inductors via Inhibition of ROS Production and ATP-Induced P2X7 Receptor Activation” (International Journal of Molecular Sciences, 2022)
Read-outs that look alike come from different tables or passages of the source.

Tests used:
trypsin [1] = molecular target: T1, trypsin (Bos taurus, UniProt P00760); experiment: Residual trypsin-inhibitory activity after heating; assay type: biochemical; details: all temperature ranges up to 100 °C; 7 μM peptide, 1.2 mM BAPNA, 37 °C, 410 nm, three parallel experiments
T1 sequence (P00760 24-246): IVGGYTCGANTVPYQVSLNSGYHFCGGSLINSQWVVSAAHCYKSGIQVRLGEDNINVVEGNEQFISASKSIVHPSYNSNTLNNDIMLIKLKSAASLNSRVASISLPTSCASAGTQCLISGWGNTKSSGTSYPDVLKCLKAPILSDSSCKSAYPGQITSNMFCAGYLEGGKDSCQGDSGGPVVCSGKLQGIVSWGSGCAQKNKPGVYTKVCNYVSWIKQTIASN
Description: Figure 6 The effects of temperature on the trypsin-inhibitory activity levels of peptides. Peptides were incubated at the temperatures for 30 min and their residual activities were measured.
The temperature influence on the activity levels of peptides was assessed by measuring their residual inhibitory activity levels. After preincubation at temperatures ranging from 25 to 100 °C for 25 min, the peptide solutions were added to trypsin solution and the reaction mixtures were incubated for 10 min at 37 °C, then 1.2 mM BAPNA was added, followed by incubation at 37 °C for 30 min. The final concentration of the peptides was 7 μM. Substrate hydrolysis was measured at 410 nm. The residual activity was calculated based on the results of three parallel experiments according to the following equation [60]:% = (1 − residual enzyme activity/enzyme activity without inhibitor) × 100

[2] = CD spectroscopy, secondary structural elements (Provencher–Glockner); assay type: physicochemical; parameters: unit not given here; details: deionized water, Provencher–Glockner method
From the text: To calculate secondary structural elements of peptides, circular dichroism (CD) spectroscopy was applied. CD spectroscopy is a fast, well-established, and widely used analytical technique to study secondary structures of proteins and their changes in different environments. According to Figure 3, all spectra in the far UV region (190–240 nm) have similar profiles and are characterized by a positive maximum peak at 193 nm and negative minimum peaks at 202 and 225 nm. […] The peptides have an approximately equal content of secondary structural elements, while a slight increase in α-helixes and decrease in β-structure were found in HCIQ1c9 (Table 1), which might be reflected in the spatial structure and biological activity of the peptide.
(§1) Circular dichroism (CD) spectra were recorded on a Chirascan-Plus CD spectropolarimeter (Applied Photophysics, Leatherhead, UK) in quartz cuvettes with an optical path length of 0.1 cm for the peptide spectrum region. The peptides were dissolved in deionized water ([…]) and incubated at temperatures ranging from 25 °C to 100 °C for 20–25 min before recording the CD spectra. The secondary structure elements were calculated using the Provencher–Glockner method using advanced Provencher calculation programs from the CDPro software package (Leatherhead, UK).

P2X7R = experiment: ATP-induced YO-PRO-1 uptake in Neuro-2a cells; assay type: cell-based, murine; details: 0.01–1.0 μM, 4 mM ATP
Description: Figure 11 The effects of the peptides on ATP-induced Neuro-2a cell viability and activation of P2X7R. (a) Impact of the peptides on Neuro-2a cell viability in the presence of 4 mM ATP. The peptides were tested at concentrations of 0.01, 0.1, and 1.0 μM. Cells were incubated with peptides for 1 h at 37 °C, then for 48 h with ATP. (b) Effects of the peptides (0.01, 0.1, and 1.0 μM) on YO-PRO-1 uptake in Neuro-2a cells. ATP was used as a P2X7R agonist. A438079 (10 μM) was used as a standard inhibitor of P2X7R. The peptide effects were evaluated against the effects of ATP. The data are shown as means ± SE; *—p < 0.05 compared to the effect of ATP alone.
For the uptake measurements of the large cationic dye YO-PRO-1, the peptides at final concentrations of 0.01, 0.1, and 1.0 μM were added to the culture medium with Neuro-2a cells and further incubated for 1 h at 37 °C with 5% CO2. Then, the cells were washed once with Hanks’ balanced salt solution (HBSS) (140 mM NaCl, 5 mM KCl, 0.8 mM MgCl2, 2 mM CaCl2, 10 mM glucose, 10 mM HEPES, pH 7.4) and filled with 180 μL of the same buffer. YO-PRO-1 (Sigma-Aldrich, St. Louis, MO, USA) was loaded into the wells to a final concentration of 5 μM, the cells were incubated for 15 min at 37 °C, then ATP was added to a final concentration of 4 mM and the plates were incubated for an additional 10 min. Then, the cells were washed three times with the buffer solution and the fluorescence intensity levels were measured with a PHERAstar FS plate reader (BMG, Germany) at λex = 480 nm and λem = 520 nm. A438079 (10 μM), a standard inhibitor of P2X7R, was used as positive control. The effectiveness of the peptides was evaluated relative to the control with ATP.

trypsin [3] = molecular target: T1, trypsin; details: cited from earlier work
Description: As mentioned above, the main function of Kunitz-type peptides is the inhibition of proteases, in particular trypsin. To confirm the bioactive conformation of HCIQ1c9, its ability to inhibit trypsin was determined. […] The decrease in trypsin-inhibitory activity of HCIQ1c9 and HCIQ4c7 in comparison with HCIQ2c1 is probably associated ... || The active spatial conformation of the peptides was also confirmed by the presence of trypsin-inhibitory activity. […] Thus, both negatively and positively charged residues at position P1’ led to decreases in the trypsin-inhibitory activity of the peptides, with HCIQ4c7 beings a stronger trypsin inhibitor than HCIQ1c9. This was due to the residue Glu17, which can make additional contact with ...

[4] = Thermal stability by CD spectroscopy; assay type: physicochemical
Description: Figure 5 Evaluation of the thermal stability of peptides in deionized water via CD spectroscopy. Recordings of the CD spectra of HCIQ2c1 (a), HMIQ3c1 (b), HCIQ4c7 (c), and HCIQ1c9 (d) were conducted in the far UV region (190–240 nm) after the solutions were incubated over a temperature range from 25 °C to 100 °C for 20–25 min.
as §1

serine proteinases = details: cited from earlier work
From the text: A new peptide, HCIQ1c9, with Gly17Arg at position P1’ of the reactive site was also found in a combinatorial library of H. crispa Kunitz-type peptides and produced in E. coli. Thus, in this work four isoforms of Kunitz-type peptides with point a.a. substitutions were studied in various in vitro models.

HCIQ2c1: recombinant Kunitz-type peptide from Heteractis crispa, UniProtKB ID A0A6B7FBD3 (IQGNICSEPKKVGRCRGSFPRFYFDSETGKCTPFIYGGCGGNGNNFETLHACRAICRA; UniProt A0A6B7FBD3 28-85, looked up)
trypsin-inhibitory activity after heating (trypsin [1]): inhibit trypsin completely at all temperature ranges | Unordered Structure [2]: 35.7 | β-Turn [2]: 19.0 | α-Helix II ([2]; irregular structure): 13.9 | β-Structure II ([2]; irregular structure): 6.9 | β-Structure I ([2]; regular structure): 17.4 | α-Helix I ([2]; regular structure, far UV 190–240 nm): 7.1 | α-Helix III ([2]; summary value): 21.0 | β-Structure III ([2]; summary value): 24.3 | inhibition of ATP-induced YO-PRO-1 uptake (P2X7R): inhibited ATP-induced dye uptake, but their effects were not statistically significant | Ki (trypsin [3]; as shown previously, ref not printed at place, read-out: inhibited trypsin at (order of magnitude)): ~10 nM | Ki (trypsin [3]; read-out: trypsin inhibitory constant (Ki)): 52 nM | CD spectral change on further heating ([4]; 100 °C, deionized water, 20–25 min): decreased positive peaks at 193 nm | thermostability: retains conformation and biological activity until ([4]; CD spectra and residual trypsin-inhibitory activity): 90–100 °C | CD spectrum: no significant changes after heating until ([4]; deionized water, 25–100 °C for 20–25 min, 190–240 nm): 90 °C | interaction with serine proteinases (serine proteinases): interact with several serine proteinases, including inflammatory ones
